According to patent US20150148520A1 (INDIANA UNIVERSITY RESEARCH AND TECHNOLOGY, published 2015):
Bridges are numbered along the chain shown (N, C = ends). Roman numbers before positions name the chains, in order. Where no end group is shown, it is not given here. [ ]: non-standard residue; d: D form. Phe(4-NH2) = Nc1ccc(C[C@H](N)C(=O)O)cc1

How the values were obtained:
[1] = target: T1, human IGF-1 receptor (human, UniProt P08069 31-1367); assay: SPA competition, [125I]-IGF-1, IGF-1R membranes
T1 construct: whole, on cells; Phosphorylation assay: receptor transfected HEK293 cells; also called IGF-1
Description: (§1) Non-specifically bound (NSB) radioactivity was measured in the wells with a four-fold concentration excess of “cold” native ligand than the highest concentration in test samples. Total bound radioactivity was detected in the wells with no competitor. Percent specific binding was calculated as following: % Specific Binding=(Bound-NSB/Total bound-NSB)×100. IC50 values were determined by using Origin software (OriginLab, Northampton, Mass.).

[2] = target: T1, human IGF-1 receptor; assay: cell-based or functional assay
[3] = target: T2, human insulin receptor (human, UniProt P06213 28-1382); assay: cell-based or functional assay
[4] = target: T2, human insulin receptor; assay: SPA competition, [125I]-insulin, IR membranes
Description: as §1

B1: IGF-1 A: B (H5D10Y16L17) DPI (ligand)
chain 1: GIVDECCFRSCDLRRLEMYCA-NH2
chain 2: GPEHLCGADLVDALYLVCGDRGFY-NH2
modifications: disulfide I:6-I:11, I:20-II:18, I:7-II:6; ends not checked
Q: Which “activity (0.55 nM)” value [1] does the source give for B1 here?
A: 11.8%

Q: What about the “% IGF” value [2] of the same binder?
A: 7.1%

B2: IGF-1 A: B (D10Y16L17) DPI A-COOH (ligand)
chain 1: GIVDECCFRSCDLRRLEMYCA-OH
chain 2: GPETLCGADLVDALYLVCGDRGFY-NH2
modifications: disulfide I:6-I:11, I:20-II:18, I:7-II:6; ends not checked
Q: B2 was tested. Which “activity (0.55 nM)” value [1] did it give?
A: 8.1%

Q: What about the “% IGF” value [2] of the same binder?
A: 112%

Q: And the “% Insulin” value [3]?
A: 1580%

B3: IGF-1 A: B (E10Y16L17)-E31E32 B-COOH (ligand)
chain 1: GIVDECCFRSCDLRRLEMYCA-NH2
chain 2: GPETLCGAELVDALYLVCGDRGFYFNKPTEE-OH
modifications: disulfide I:6-I:11, I:20-II:18, I:7-II:6; ends not checked
Q: With B3 as the binder, how does the “activity (0.55 nM)” value [1] read?
A: 3.1%

B4: IGF1 A:B(Y^B16L^B17)(p-NH2-F)^A19amide (ligand)
chain 1: GIVDECCFRSCDLRRLEM[Phe(4-NH2)]CA
chain 2: GPETLCGAELVDALYLVCGDRGFYFNKPT-NH2
modifications: disulfide (positions not given here); not fully specified (bridges); also: C-terminal amide, chain not given here
Q: For B4, which IC50 [4] is on record?
A: 1.08 nM

B5: IGF-1 A (H8 A9 N21): B (H5D10Y16L17 A22) DPI A-COOH (ligand)
chain 1: GIVDECCHASCDLRRLEMYCN-OH
chain 2: GPEHLCGADLVDALYLVCGDAGFY
modifications: not fully specified (C-terminus); ends and bridges not checked
Q: With B5 as the binder, how does the “% IGF-1 (in test)” value [1] read?
A: 2.3%

Q: What about the IC50 [1] of the same binder?
A: 22.8 nM

Q: And the “activity (0.55 nM)” value [1]?
A: 2.4%

Q: And the “% IGF” value [2]?
A: 7.7%

B6: IGF-1 A: In (1-17)-IGF-1 B (18-30) (ligand)
chain 1: GIVDECCFRSCDLRRLEMYCA-NH2
chain 2: FVNQHLCGSHLVEALYLVCGDRGFYFNKPT-NH2
modifications: disulfide I:6-I:11, I:20-II:19, I:7-II:7; ends not checked
Q: B6 was tested. Which “activity (0.55 nM)” value [1] did it give?
A: 0.9%

B7: IGF-1 A: In B (1-5)-IGF-1 B (YL) (6-30) (ligand)
A chain: GIVDECCFRSCDLRRLEMYCA-NH2
B chain: FVNQHLCGAELVDALYLVCGDRGFYFNKPT-NH2
modifications: disulfide I:6-I:11, I:20-II:19, I:7-II:7; not fully specified
Q: B7 was tested. Which “activity (0.55 nM)” value [1] did it give?
A: 2%

B8: IGF-1 A: IGF-1 B (1-8)-In (9-17)-IGF-1 B (18-30) (ligand)
chain 1: GIVDECCFRSCDLRRLEMYCA-NH2
chain 2: GPETLCGSHLVEALYLVCGDRGFYFNKPT-NH2
modifications: disulfide I:6-I:11, I:20-II:18, I:7-II:6; ends not checked
Q: Which “activity (0.55 nM)” value [1] does the source give for B8 here?
A: 0.4%

B9: IGF-1 A (H8 A9 N21): B(H5D10Y16L17) DPI A-COOH (ligand)
chain 1: GIVDECCHASCDLRRLEMYCN-OH
chain 2: GPEHLCGADLVDALYLVCGDRGFY-NH2
modifications: disulfide I:6-I:11, I:20-II:18, I:7-II:6; ends not checked
Q: What does the source list for B9?
A: activity (0.55 nM) [1]: 13.6%; % IGF [2]: 181%

B10: IGF-1 A: B (E10Y16L17) DPI (ligand)
A chain: GIVDECCFRSCDLRRLEMYCA-NH2
B chain: GPETLCGAELVDALYLVCGDRGFY-NH2
modifications: disulfide I:6-I:11, I:20-II:18, I:7-II:6; not fully specified
Q: For B10, which “activity (0.55 nM)” value [1] is on record?
A: 2.4%
